pIC50: −log10 of the molar value.

The subject of one series is Ramos cell surface target (unidentified; human B-cell leukemia cells). The experiment in a line: competition. As to conditions: competition with FITC-labeled monomer on target cells, flow cytometry. On the technique in general: A flow cytometer gives signals particle by particle.
For orientation: pIC50 means the IC50 on a negative log10 scale, so that one unit is a factor of ten. Sequence “TAGGCAGTGGTTTGACGTCCGCATGTTGGGAATAGCCACGCCT / TAGGCAGTGGTTTGACGTCCGCATGTTGGGAATAGCCACGCCT / TAGGCAGTGGTTTGACGTCCGCATGTTGGGAATAGCCACGCCT / TAGGCAGTGGTTTGACGTCCGCATGTTGGGAATAGCCACGCCT [rigid tetramer of SEQ 3 aptamer]” gave a pIC50 of 7.94.

“TAGGCAGTGGTTTGACGTCCGCATGTTGGGAATAGCCACGCCT / TAGGCAGTGGTTTGACGTCCGCATGTTGGGAATAGCCACGCCT [rigid dimer of SEQ 3 aptamer]” gave a pIC50 of 7.65.

On to “TAGGCAGTGGTTTGACGTCCGCATGTTGGGAATAGCCACGCCT / TAGGCAGTGGTTTGACGTCCGCATGTTGGGAATAGCCACGCCT [flexible dimer of SEQ 3 aptamer]”, for which the pIC50 is 7.48.

With “TAGGCAGTGGTTTGACGTCCGCATGTTGGGAATAGCCACGCCT / TAGGCAGTGGTTTGACGTCCGCATGTTGGGAATAGCCACGCCT / TAGGCAGTGGTTTGACGTCCGCATGTTGGGAATAGCCACGCCT [flexible trimer of SEQ 3 aptamer]”, the negative logarithm of the IC50 (pIC50) was 7.56.

Turning to “TAGGCAGTGGTTTGACGTCCGCATGTTGGGAATAGCCACGCCT / TAGGCAGTGGTTTGACGTCCGCATGTTGGGAATAGCCACGCCT / TAGGCAGTGGTTTGACGTCCGCATGTTGGGAATAGCCACGCCT [rigid trimer of SEQ 3 aptamer]”, the pIC50 is 7.68.

The series is the same for the next values; noted with them: unlabeled monomer vs FITC-labeled monomer on target cells, flow cytometry.
In turn, “TAGGCAGTGGTTTGACGTCCGCATGTTGGGAATAGCCACGCCT [Ramos-binding ssDNA aptamer monomer]” showed a pIC50 of 6.40.

The record behind these values is US20110275702.
